Target: PRC2^amKR: PRC2 with EZH2 K510R, K514R, K515R (am-loop lysines mutated to arginines) (human) (UniProt Q15910)

PRC2^CXC: PRC2 with EZH2 K568A/Q570A/K574A/Q575A in the CXC domain, automethylated (from UniProt Q15910-2 1-751; Q15022 80-685; O75530 1-441; Q09028 1-425; Q6ZN18 1-517) (complex)
H3K27me3 generated by PRC2^amKR on mononucleosomes (HMTase assay, western blot) with 400 nM PRC2^CXC added: 50%

Reference: PMC11980035
